From the RNAGym collection of RNA variant scans (doi:10.7554/elife.80360)

B1: Hairpin Ribozyme (parent)
chain: GUCCUCUUUCACGUGCGCGUGAAAGAGAGAAGUGAACCAGAGAAACACACGUUGUGGUAUAUUACCUGGUA

Variants of: B1
Experiment: self-cleavage, relative activity (ratio to wild type); higher = more cleavage; co-transcriptional

Variant | self-cleavage
GUCCUCUUUCACGUGCGCGUGAAAGAGAGAAGUGAACCAGAGAAACACACGCUGUGGUAUAUUACCCGGUA [U52C U67C] | 0.274
GUCCUCUUUCACGUGCGCGUGAAAGAGAGAAGUGAACCAGAGAAACACACGCUGCGGUAUAUUACCUGGUA [U52C U55C] | 0.536
GUCCUCUUUCACGUGCGCGUGAAAGAGAGAAGUGAACCAGAGAAACACACGCUGAGGUAUAUUACCUGGUA [U52C U55A] | 0.318
GUCCUCUUUCACGUGCGCGUGAAAGAGAGAAGUGAACCAGAGAAACACACGCUGUGAUAUAUUACCUGGUA [U52C G57A] | 0.223
GUCCUCUUUCACGUGCGCGUGAAAGAGAGAAGUGAACCAGAGAAACACACGCUGUGCUAUAUUACCUGGUA [U52C G57C] | 0.123
GUCCUCUUUCACGUGCGCGUGAAAGAGAGAAGUGAACCAGAGAAACACACGCUGUGGUAUAUUACCUGGUU [U52C A71U] | 0.913
GUCCUCUUUCACGUGCGCGUGAAAGAGAGAAGUGAACCAGAGAAACACACGAUGUGGUAUAUUACCUGGAA [U52A U70A] | 0.825
GUCCUCUUUCACGUGCGCGUGAAAGAGAGAAGUGAACCAGAGAAACACACGAUGUGGUAUAUUACCUGGGA [U52A U70G] | 0.86
GUCCUCUUUCACGUGCGCGUGAAAGAGAGAAGUGAACCAGAGAAACACACGAUGUGGUAUAUUACCUGGCA [U52A U70C] | 0.801
GUCCUCUUUCACGUGCGCGUGAAAGAGAGAAGUGAACCAGAGAAACACACGCUGUGGUAAAUUACCUGGUA [U52C U60A] | 1.14
GUCCUCUUUCACGUGCGCGUGAAAGAGAGAAGUGAACCAGAGAAACACACGGUGUUGUAUAUUACCUGGUA [U52G G56U] | 0.131
GUCCUCUUUCACGUGCGCGUGAAAGAGAGAAGUGAACCAGAGAAACACACGCUGUGGUAUAUUACGUGGUA [U52C C66G] | 0.244
GUCCUCUUUCACGUGCGCGUGAAAGAGAGAAGUGAACCAGAGAAACACACGCUGUGGGAUAUUACCUGGUA [U52C U58G] | 0.606
GUCCUCUUUCACGUGCGCGUGAAAGAGAGAAGUGAACCAGAGAAACACACGCUGUGGUAUAUUACCUGGCA [U52C U70C] | 1.11
GUCCUCUUUCACGUGCGCGUGAAAGAGAGAAGUGAACCAGAGAAACACACGCUGUGGUAUAUUACCUGGGA [U52C U70G] | 0.988
GUCCUCUUUCACGUGCGCGUGAAAGAGAGAAGUGAACCAGAGAAACACACGCUGUGGUUUAUUACCUGGUA [U52C A59U] | 0.115
GUCCUCUUUCACGUGCGCGUGAAAGAGAGAAGUGAACCAGAGAAACACACGGUGUGAUAUAUUACCUGGUA [U52G G57A] | 0.181
GUCCUCUUUCACGUGCGCGUGAAAGAGAGAAGUGAACCAGAGAAACACACGGUGUGCUAUAUUACCUGGUA [U52G G57C] | 0.216
GUCCUCUUUCACGUGCGCGUGAAAGAGAGAAGUGAACCAGAGAAACACACGGUGUGUUAUAUUACCUGGUA [U52G G57U] | 0.232

Variant | self-cleavage
GUCCUCUUUCACGUGCGCGUGAAAGAGAGAAGUGAACCAGAGAAACACACGGUGUGGUAUAUUAUCUGGUA [U52G C65U] | 0.302
GUCCUCUUUCACGUGCGCGUGAAAGAGAGAAGUGAACCAGAGAAACACACGAUGUGGUAUAUUACCGGGUA [U52A U67G] | 0.408
GUCCUCUUUCACGUGCGCGUGAAAGAGAGAAGUGAACCAGAGAAACACACGGUGUGGUAUAUUACCUGGUC [U52G A71C] | 1.32
GUCCUCUUUCACGUGCGCGUGAAAGAGAGAAGUGAACCAGAGAAACACACGGUGUGGUAUAUUACCUGGUG [U52G A71G] | 0.654
GUCCUCUUUCACGUGCGCGUGAAAGAGAGAAGUGAACCAGAGAAACACACGCUGUGGUAUAUUACCUGUUA [U52C G69U] | 0.21
GUCCUCUUUCACGUGCGCGUGAAAGAGAGAAGUGAACCAGAGAAACACACGGUGUGGUAUAUUACUUGGUA [U52G C66U] | 0.474
GUCCUCUUUCACGUGCGCGUGAAAGAGAGAAGUGAACCAGAGAAACACACGCUGUUGUAUAUUACCUGGUA [U52C G56U] | 0.149
GUCCUCUUUCACGUGCGCGUGAAAGAGAGAAGUGAACCAGAGAAACACACGCUGUCGUAUAUUACCUGGUA [U52C G56C] | 0.165
GUCCUCUUUCACGUGCGCGUGAAAGAGAGAAGUGAACCAGAGAAACACACGGUGUGGUGUAUUACCUGGUA [U52G A59G] | 0.25
GUCCUCUUUCACGUGCGCGUGAAAGAGAGAAGUGAACCAGAGAAACACACGGUGUGGUCUAUUACCUGGUA [U52G A59C] | 0.206
GUCCUCUUUCACGUGCGCGUGAAAGAGAGAAGUGAACCAGAGAAACACACGCGGUGGUAUAUUACCUGGUA [U52C U53G] | 1
GUCCUCUUUCACGUGCGCGUGAAAGAGAGAAGUGAACCAGAGAAACACACGCCGUGGUAUAUUACCUGGUA [U52C U53C] | 1.07
GUCCUCUUUCACGUGCGCGUGAAAGAGAGAAGUGAACCAGAGAAACACACGCUGUGGUAUAUUAUCUGGUA [U52C C65U] | 0.471
GUCCUCUUUCACGUGCGCGUGAAAGAGAGAAGUGAACCAGAGAAACACACGCUGUGGUAUAUUAACUGGUA [U52C C65A] | 1.2
GUCCUCUUUCACGUGCGCGUGAAAGAGAGAAGUGAACCAGAGAAACACACGCUGUGGUAUAUUCCCUGGUA [U52C A64C] | 0.128
GUCCUCUUUCACGUGCGCGUGAAAGAGAGAAGUGAACCAGAGAAACACACGCUGUGGUAUAUUGCCUGGUA [U52C A64G] | 0.546
GUCCUCUUUCACGUGCGCGUGAAAGAGAGAAGUGAACCAGAGAAACACACGCUGUGGUAUAUGACCUGGUA [U52C U63G] | 0.341
GUCCUCUUUCACGUGCGCGUGAAAGAGAGAAGUGAACCAGAGAAACACACGGUGUGGUAUAUUACCUCGUA [U52G G68C] | 0.283
GUCCUCUUUCACGUGCGCGUGAAAGAGAGAAGUGAACCAGAGAAACACACGCUGUGGUAUAAUACCUGGUA [U52C U62A] | 0.32
